Reference: a protein production outcome set (Wang et al. 2014)

Test: label from the status in PepcDB records

| Sequence | protein production |
| --- | --- |
| MRTAVAVPYHSGIRLPLLFEKNARMTETIDTNVFNLAPVAMWIEDFSEVKSQFDIWRAEGIEDIRAFLLEDLSRVAACSQKIRVIEVNAKTLELFEARDQAHLVDNLHRIFRDDMLESHVNELSELWAGRTEFTSNAVNYSIGGRRLDIQLRGTVIPGHEDTLGRLLLTTEDVTEREEARRKELLNRRYAEGMFKHSPVSLWVEDFSRVRRLIEEVRERGIVDFRVFMDVHPEFVRQCMSEIRVIDVNQATLDLFCAADRQVLLQRLGDIFRGEMEKPFREQLIELWNGNLTHHREVVNYALDGSERHVLLHFSVFPGHERDWSLVQVALTDITARKKAEAYLEYLGKHDVLTKLHNRAFYSDELNRLERSALRPVSAIVIDLNGLKEANDKLGHDAGDALLRRVGEVLNGVVTAPNHAARIGGDEFAILLPGADKQVAAAMVDTVYELLKINNQFYSSAPLSLSLGVATTEAGETMESLVRRADMNMYEQKNAYYAALRNRSADNNDTTKGGSQSETTSLKRLF | failed |
| MRTEPQPLHLPVFRAILASMGEGIIFADADDRIRYINAAAEDIRGIIAGNYLGRSIVSIHSPASEGRIRRLIAGLKGGDIPFSTRVIHVREKIFENSYYPIRNENGIYEGTLLISRDITEKELLKEENNSLREQVRADFACGGMIGKSHAMEPVFHMIRATAALDSTILISGESGTGKELVACAIHQMSPRHKNPFVKVNCAALPETLLESELFGHERGAFTGAVRERKGKFEQAHLGTIFLDEIGEMPLAAQAKLLRVIQGKTLERIGGNREIAVDVRIIAATNKDLRREVERGAFREDLFYRLNVIPIHLPPLRERREDILPLAEHFLSVYAERMRKPVHCIAPDARKALLDYDYPGNVRELENAIERGVALSMGETITLADLAPYFVTGASAAPAGAALPKEPPTATLSRAVSVAEQEAIREALQTTGNRKGVAAKLLGISRKTLWEKLKQMERT | failed |
| MRTIAFALALLATPVAAELEAARDLMDAGRFDEAYAALWPAARSGNAEAEELIGVIYAMGLGRPRDDQRAFEWYLRAAMKGHPGAQSGVGWYYEVGRGLPAPDLMRAYMWYTLSAIGGDPDAAISLEEVAKKMTAEEINKAHVLVADYKVWMYPFR | failed |
| MRTLAVISAGLSTPSSTRQIADSISEAVTAAVSARGEALSVSTIELSELIPDLMTAMTTRVHTTKLEEITSALSASDGLVVATPVFKASYTGLFKMFFDILDTDALTGMPTIIAATAGSARHSLVLDYALRPLLSYMRAVVVPTGVFAATEDFGGPEGAEFNKRIARAAGELASLIVEESGNVGLEHHHHHH | failed |
| MRTLEPPNRMRIGLMGIVVALLVVAVGQSFTSVPMLFAKPSYYGQFTDSGGLHKGDRVRIAGLGVGTVEGLKIDGDHIVVKFSIGTNTIGTESRLAIRTDTILGRKVLEIEPRGAQALPPGGVLPVGQSTTPYQIYDAFFDVTKAASGWDIETVKRSLNVLSETVDQTYPHLSAALDGVAKFSDTIGKRDEQITHLLAQANQVASILGDRSDQVDRLLVNAKTLIAAFNERGRAVDALLGNISAFSAQVQNLINDNPNLNHVLEQLRILTDLLVDRKEDLAETLTILGRFSASFGETFASGPYFKVLLANLVPGQILQPFVDAAFKKRGISPEDFWRSAGLPAYRWPDPNGTRFPNGAPPPPPPVLEGTPEHPGPAVPPGSPCSYTPPADGLPRPWDPLPCANLTQGPFGGPDFPAPLDVATSPPNPDGPPPAPGLPIAGRPGEVPPNVPGTPVPIPQEAPPGARTLPLGPAPGPAPPPAAPGPPAPPGPGPQLPAPFINPGGTGGSGVTGGSEN | failed |
| MRTLTTLLGNSQKLDGGAMFGNAPRALWSRWMQPDAENRIDLGCRALLVRDGERNVLVEAGIGAFFPPALRQRYGVQEERHVLLDSLAAVGLDDADIDVVLLTHLHFDHAGGLLAAWEEGQPARLLFPNAHFVSGRRHWQRARQPHPRDRASFVPELLDLLQASGRLELLDDGERSAHLGEGWRFHFSEGHTPGQMLPEIAMPDGPVVFSGDLIPGAPWVHLPLTMGYDRFPEGLIEEKERLLDSLIARNGRLVFTHDPCVAMGRVRRDEQERYSLYDTLERVENLEA | failed |
| MRTVSHPTPLRRAPVQRRSAERLTRILDACADLLDEVGYDALSTRAVALRADVPIGSVYRFFGNKRQMADALAQRNLERYAERVTERLTEAGDGGWRGALDTVLDEYLAMKRTAPGFSLIDFGNQIPVGDRHAVPNHRVAERLTELLSGYLGRRPDDDLRRVFLVAVETADTLVQLAFRVAPDGDEKIIEEARELLRAYLGRVLD | not failed |
| MRTYTAQPDTTRPDTLTVTTYNIGYLSGMRNNEPVVRPDSLFHANMDQAAGYLRAAAPDIVALQEIDFGGARAAHVHQLDTLAARLGYPGAAQAVNWDERYLPFPYGRPAVHFGRTLSGQAVLSRFPVRRHVRRTLPRPPQPFFRDAFYLDRLAQVGVVDVDGRPLAVINVHLEAFDVGTRETQARVVNDLYRRLADRGIPTLLLGDFNSSLSSGEEGGQAGAEDATMQHILAGTDLRSAVNTASADTASATYPADAPARTIDHIFYPPQFFEAVDTQRWCGRPAPPSDHCAVTAALRLPSRAKWPSHEALPPLEDSPTE | failed |
| MRVAVAGFGGVGRRLARLLLERGGSHGLSLAAAIDSRGHAVFDSRGCVEEALSAPRGGLAGVSCGAPGSGPGVLRGLGYDALVLTTASSPGTGEPGLGYARAALEDGKVVVAADKPPVALLLLEHGGPPPGLFYKATVMAGTPLIDLLRVGLAGRRVLRVVGVLNGTSNYILNLLMEGV | failed |
| MRVEALGKVAPLPQAQTPVSLNEASLEELMALPGIGPVLARRIVEGRPYARVEDLLKVKGIGPATLERLRPYLRP | not failed |
| MRVEENYHAFFTEASGFLNERIFKDYLRRLAYGIDASCYRYIPKIVAWVKNEEEVQKLCVLAKKHGVSLTFRAAGSSLSGQAICDGVLVMVTHFFKDAQILDNAQSIQLSCGVIGSNANALLKPYHKKIGPDPSTINTAMIGGIVANNASGMCCGVEQNSYKTLKSLRVILADGTLLDTANQESVESFKNAHKDLIEGVLNLRKEILEDKELHALIKKKYEIKNTTGYSLNALIDFEDPIEIISHLFIGSEGTLGFISSVELECVKDYAYKTCALLFYENLERCAKAAQILAALKAKQPEMISSAELMDYACLKSVKGLEGMPSVVLEIKEPNACLLIQSESDDPLILENSMQTILNALSAIPVVLDSQISSDPSIYQSWWKIRKGIFPIAASKRKSQSSVIIEDICFSQEDFVEGAKAIEGLLKKHGFKDNGIIFGHALSGNLHFVVTPILENEAERKAFENLVSEMFLMVSKSSGSIKAEHGTGRMVAPFVEMEWGEKAYKIHKQIKELFDPNGILNPDVIITNDKEIHTKNLKSIYPIEEHLDMCMECGFCERICPSKDLSLTPRQRIVIHREVEHLKERVSHGHHEDQVLLDELLKESEYLAHATCAVCHMCSTLCPLEIDTGKIALNYYQKNPKGEKIASKILNHMQTTTSMARFSLKSARLVQNLIGSHNLVSLTKGIKKFIKPFPKAFYYMPKNNAYPLENKTLKSEEKVIYFSTCINRSFAPSNKMADKRCIQEVFESLCQKAKVSVMYPNGLNALCCGKAFINYTDLTKQNNEKNHAIFLQLSDKGKIPIVLDHSACSTHFFKQMKAYKDLKVYDLSVYIEEVLSPKLKFNPINEDIGLYTMCALKLENKEELLFNLAKKCTLGEIVIHKETGCCGFAGNKGFFTPELNESALNGFQAFYQSYDLKRGFSTSSTCEIGLSEKTRFSWQHIAYLVDACTL | failed |
| MRVIVTEYQPAWVEQFEEEAQALKQILKENCLKVEHIGSTSVPNLAAKPIIDFLVIVEEIEKVDLLQWEFERIGYEYMGEFGLSGRRYLRKGPIKRTHHVHIYQFDNTQEILRHLAFRNYLRENPAIATTYGTLKKQLAQAHPDSIDKYMDGKDAFIKKIEKEALKKYWE | not failed |
| MRVLAIRHVEIEDLGMMEDIFREKNWSFDYLDTPKGEKLERPLEEYSLVVLLGGYMGAYEEEKYPFLKYEFQLIEEILKKEIPFLGICLGSQMLAKVLGASVYRGKNGEEIGWYFVEKVSDNKFFREFPDRLRVFQWHGDTFDLPRRATRVFTSEKYENQGFVYGKAVGLQFHIEVGARTMKRWIEAYKDELEKKKIDPRLLLETAEREEKVLKGLLRSLLERMVES | not failed |
